From publication PMC11016754, “Allosteric Probe-Based Colorimetric Assay for Direct Identification and Sensitive Analysis of Methicillin Resistance of Staphylococcus aureus”

Target: T1, PBP2a (penicillin binding protein 2a) (Staphylococcus aureus …, UniProt Q53707 25-668)
T1 sequence: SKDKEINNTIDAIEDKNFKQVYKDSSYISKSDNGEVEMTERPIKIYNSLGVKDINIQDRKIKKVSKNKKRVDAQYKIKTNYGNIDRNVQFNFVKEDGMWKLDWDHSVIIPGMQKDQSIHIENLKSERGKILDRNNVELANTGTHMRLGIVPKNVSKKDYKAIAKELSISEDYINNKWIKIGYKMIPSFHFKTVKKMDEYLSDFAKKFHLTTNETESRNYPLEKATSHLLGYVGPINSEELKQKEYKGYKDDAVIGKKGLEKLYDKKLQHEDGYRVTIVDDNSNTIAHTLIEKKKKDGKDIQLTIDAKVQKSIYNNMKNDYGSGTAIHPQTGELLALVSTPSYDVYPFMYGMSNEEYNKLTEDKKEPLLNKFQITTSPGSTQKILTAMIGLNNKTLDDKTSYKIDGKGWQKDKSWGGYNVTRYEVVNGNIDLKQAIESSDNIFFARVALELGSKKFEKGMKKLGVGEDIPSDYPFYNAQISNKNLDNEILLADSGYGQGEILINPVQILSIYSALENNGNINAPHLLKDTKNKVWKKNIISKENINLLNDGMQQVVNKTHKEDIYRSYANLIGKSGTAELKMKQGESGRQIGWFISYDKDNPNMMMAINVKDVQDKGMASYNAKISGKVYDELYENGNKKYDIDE
Experiment: fluorescence dequenching (FAM/BHQ hairpin opening); Binding-assay buffer not stated; amplification assay in PBS, room temperature, 60 min, 100 nM H1
Conditions: label: FAM and BHQ at the two termini

B1: H1 probe (allosteric hairpin with PBP2a aptamer section d) (structured_DNA)
DNA: CACCCCACCTCGCTCCCGTGACACTAATGCTATTTTTTTTTATTTCTTTATCCTCAGCTTAGTGTCACTAAGC
**Q.** Does B1 bind?
**A.** Result: binds
